Assay results taken from US20140227291A1.

How the values were obtained:
[1] = target: Abeta(1-42) globulomer (human) (UniProt P05067); assay: dot blot, antigen dilution series on nitrocellulose, antibody 0.2 µg/ml, densitometry
[2] = target: Abeta(1-40) monomer in 0.1% NaOH (human); assay: as above
[3] = target: Abeta(1-40) monomer in 0.1% NH4OH (human); assay: as above
[4] = target: Abeta(1-42) monomer in 0.1% NH4OH (human); assay: as above
[5] = target: Abeta(1-42) fibril preparation (human) (UniProt P05067); assay: as above
[6] = target: Abeta(1-42) monomer in 0.1% NaOH (human); assay: as above
[7] = target: platelet factor 4 (PF-4) in Cynomolgus monkey plasma (Cynomolgus (Macaca fascicularis)); assay: aligned sandwich-ELISA with cynomolgus plasma; reference antibody
[8] = target: platelet factor 4 (PF-4) in Cynomolgus monkey plasma (Cynomolgus (Macaca fascicularis)); assay: sandwich-ELISA with cynomolgus plasma; reference antibody
[9] = target: platelet factor 4 (PF-4) in Cynomolgus monkey plasma (Cynomolgus (Macaca fascicularis)); assay: sandwich-ELISA, antibody coated at 10 µg/ml, cynomolgus plasma dilutions 1:3.16 to 1:3160, OD450 against log dilution
[10] = target: human platelet factor 4 (PF-4) in HPF4-spiked human plasma (human) (UniProt P02776); assay: sandwich-ELISA, antibody coated at 10 µg/ml, HPF4-spiked human plasma dilutions 1:3.16 to 1:3160, OD450 against log dilution
[11] = target: human platelet factor 4 (PF-4) in HPF4-spiked human plasma (human) (UniProt P02776); assay: sandwich-ELISA with HPF4-spiked human plasma; reference antibody
[12] = target: human platelet factor 4 (PF-4) in HPF4-spiked human plasma (human) (UniProt P02776); assay: aligned sandwich-ELISA with HPF4-spiked human plasma; reference antibody
[13] = target: platelet factor 4 (PF-4) in Cynomolgus monkey plasma (Cynomolgus (Macaca fascicularis)); assay: aligned sandwich-ELISA, antibody 10 to 10000 ng/ml captured by anti-mouse IgG (Fc), cynomolgus plasma 1:100, OD450 against log concentration
[14] = target: platelet factor 4 (PF-4) in Cynomolgus monkey plasma (Cynomolgus (Macaca fascicularis)); assay: aligned sandwich-ELISA: antibody dilution series captured by coated anti-mouse IgG (Fc), cynomolgus plasma 1:100, bound PF-4 detected with rabbit anti-HPF4 and anti-rabbit-POD
[15] = target: human platelet factor 4 (PF-4) in HPF4-spiked human plasma (human) (UniProt P02776); assay: aligned sandwich-ELISA: antibody dilution series captured by coated anti-mouse IgG (Fc), HPF4-spiked human plasma 1:10, bound PF-4 detected with rabbit anti-HPF4 and anti-rabbit-POD
[16] = target: human platelet factor 4 (PF-4) in HPF4-spiked human plasma (human) (UniProt P02776); assay: aligned sandwich-ELISA, antibody 10 to 10000 ng/ml captured by anti-mouse IgG (Fc), HPF4-spiked human plasma 1:10, OD450 against log concentration

Sequence of human platelet factor 4 (PF-4) in HPF4-spiked human plasma (human) (P02776 32-101): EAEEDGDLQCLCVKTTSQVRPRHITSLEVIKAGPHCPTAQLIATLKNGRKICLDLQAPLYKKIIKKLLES
Sequence of platelet factor 4 (PF-4) in Cynomolgus monkey plasma (Cynomolgus (Macaca fascicularis)) (chain, as listed by the source): as the sequence (P02776 32-101) above, with I64V counted along it
Sequence of Abeta(1-42) monomer in 0.1% NaOH (human) (peptide, as listed by the source): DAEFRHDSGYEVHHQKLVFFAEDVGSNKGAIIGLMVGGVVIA
Sequence of Abeta(1-40) monomer in 0.1% NH4OH (human) (peptide, as listed by the source): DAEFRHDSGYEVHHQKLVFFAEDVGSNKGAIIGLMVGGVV

dot blot ratio (recognition of Abeta(20-42) globulomer relative to this Abeta form) [1] | dot blot ratio (recognition of Abeta(20-42) globulomer relative to this Abeta form) [2] | dot blot ratio (recognition of Abeta(20-42) globulomer relative to this Abeta form) [3] | dot blot ratio (recognition of Abeta(20-42) globulomer relative to this Abeta form) [4] | dot blot ratio (recognition of Abeta(20-42) globulomer relative to this Abeta form) [5] | dot blot ratio (recognition of Abeta(20-42) globulomer relative to this Abeta form) [6] | Ratio HPF4/aAbeta antibody (AUC of anti-HPF4 over AUC of this antibody) [7] | Ratio HPF4/aAbeta antibody (AUC of anti-HPF4 over AUC of this antibody) [8] | Area Under Curve [9] | Area Under Curve [10] | Ratio HPF4/aAbeta antibody (AUC of anti-HPF4 over AUC of this antibody) [11] | Ratio HPF4/aAbeta antibody (AUC of anti-HPF4 over AUC of this antibody) [12] | Area Under Curve [13] | EC50 (read off the curve) [14] | EC50 (read off the curve) [15] | Area Under Curve [16] | Substance
0.09 | 20 | 3 | 10 | 29 | 10 |  |  |  |  |  |  |  |  |  |  | Anti-Abeta monoclonal antibody clone 6E10 (Covance cat. no. SIG-39320)
 |  |  |  |  |  | 1 | 1 | 2.68 | 1.99 | 1 | 1 | 4.78 | 0.05 µg/mL | 0.07 µg/mL | 3.84 | Anti-HPF4 monoclonal antibody (Abcam Cat. No. ab49735)
 |  |  |  |  |  |  |  | 0.005 | 0.006 |  |  | 0.015 |  |  | 0.033 | Monoclonal antibody clone mIgG2a (negative control)
